Test results from publication PMC9569824.

Molecular target: bovine pancreatic ribonuclease A (bovine) (UniProt P61823)
Assay: SEC; size of the SA-2 peak from stored N-swapped oligomers, estimated from its elution volume against the calibration curves of the Superdex columns; estimate only

- stoichiometry N (RNase A units): 180
Substance: bovine pancreatic ribonuclease A (from UniProt P61823 27-150) (enzyme)
